Numbering of substitutions follows the chain as printed. Numbers in names are those of the source.
B1: DynI-PB2-GFP: GFP-tagged dynamin I with Arg-772 and Arg-773 mutated to Glu; fails to bind syndapin I (protein)
chain: MGNRGMEDLIPLVNRLQDAFSAIGQNADLDLPQIAVVGGQSAGKSSVLENFVGRDFLPRGSGIVTRRPLVLQLVNSTTEYAEFLHCKGKKFTDFEEVRLEIEAETDRVTGTNKGISPVPINLRVYSPHVLNLTLVDLPGMTKVPVGDQPPDIEFQIRDMLMQFVTKENCLILAVSPANSDLANSDALKIAKEVDPQGQRTIGVITKLDLMDEGTDARDVLENKLLPLRRGYIGVVNRSQKDIDGKKDITAALAAERKFFLSHPSYRHLADRMGTPYLQKVLNQQLTNHIRDTLPGLRNKLQSQLLSIEKEVDEYKNFRPDDPARKTKALLQMVQQFAVDFEKRIEGSGDQIDTYELSGGARINRIFHERFPFELVKMEFDEKELRREISYAIKNIHGIRTGLFTPDLAFEATVKKQVQKLKEPSIKCVDMVVSELTSTIRKCSEKLQQYPRLREEMERIVTTHIREREGRTKEQVMLLIDIELAYMNTNHEDFIGFANAQQRSNQMNKKKTSGNQDEILVIRKGWLTINNIGIMKGGSKEYWFVLTAENLSWYKDDEEKEKKYMLSVDNLKLRDVEKGFMSSKHIFALFNTEQRNVYKDYRQLELACETQEEVDSWKASFLRAGVYPERVGDKEKASETEENGSDSFMHSMDPQLERQVETIRNLVDSYMAIVNKTVRDLMPKTIMHLMINNTKEFIFSELLANLYSCGDQNTLMEESAEQAQRRDEMLRMYHALKEALSIIGDINTTTVSTPMPPPVDDSWLQVQSVPAGEESPTSSPTPQRRAPAVPPARPGSRGPAPGPPPAGSALGGAPPVPSRPGASPDPFGPPPQVPSRPNRAPPGVPSRSGQASPSRPESPRPPFDL
modifications: left off: large carriers
B2: DynI-3B-GFP: GFP-tagged dynamin I point mutant P793A (site 3); fails to bind endophilin I (protein)
chain: B1 chain with E772R, E773R, P793A
modifications: left off: large carriers
B3: DynI^WT-GFP: Transfected GFP-tagged wild-type dynamin I (protein, UniProt Q05193 1-864, looked up)
Dynamin-1: MGNRGMEDLIPLVNRLQDAFSAIGQNADLDLPQIAVVGGQSAGKSSVLENFVGRDFLPRGSGIVTRRPLVLQLVNATTEYAEFLHCKGKKFTDFEEVRLEIEAETDRVTGTNKGISPVPINLRVYSPHVLNLTLVDLPGMTKVPVGDQPPDIEFQIRDMLMQFVTKENCLILAVSPANSDLANSDALKVAKEVDPQGQRTIGVITKLDLMDEGTDARDVLENKLLPLRRGYIGVVNRSQKDIDGKKDITAALAAERKFFLSHPSYRHLADRMGTPYLQKVLNQQLTNHIRDTLPGLRNKLQSQLLSIEKEVEEYKNFRPDDPARKTKALLQMVQQFAVDFEKRIEGSGDQIDTYELSGGARINRIFHERFPFELVKMEFDEKELRREISYAIKNIHGIRTGLFTPDMAFETIVKKQVKKIREPCLKCVDMVISELISTVRQCTKKLQQYPRLREEMERIVTTHIREREGRTKEQVMLLIDIELAYMNTNHEDFIGFANAQQRSNQMNKKKTSGNQDEILVIRKGWLTINNIGIMKGGSKEYWFVLTAENLSWYKDDEEKEKKYMLSVDNLKLRDVEKGFMSSKHIFALFNTEQRNVYKDYRQLELACETQEEVDSWKASFLRAGVYPERVGDKEKASETEENGSDSFMHSMDPQLERQVETIRNLVDSYMAIVNKTVRDLMPKTIMHLMINNTKEFIFSELLANLYSCGDQNTLMEESAEQAQRRDEMLRMYHALKEALSIIGDINTTTVSTPMPPPVDDSWLQVQSVPAGRRSPTSSPTPQRRAPAVPPARPGSRGPAPGPPPAGSALGGAPPVPSRPGASPDPFGPPPQVPSRPNRAPPGVPSRSGQASPSRPESPRPPFDL
modifications: GFP tag
notes: Transfected GFP-tagged wild-type dynamin I
B4: DynI-9A-GFP: GFP-tagged dynamin I R838E (site 9) mutant; abolishes amphiphysin I binding (protein, UniProt Q05193 1-864, looked up, variant R838E)
Dynamin-1: B3 Dynamin-1 with R838E
modifications: GFP tag
B5: DynI^dmA-GFP: Transfected GFP-tagged dynamin I double mutant, Ser-774 and Ser-778 to Ala (non-phosphorylatable) (protein)
chain: B1 chain with E772R, E773R, S774A, S778A
modifications: left off: large carriers
B6: DynI^dmE-GFP: Transfected GFP-tagged dynamin I double mutant, Ser-774 and Ser-778 to Glu (pseudo-phosphorylation) (protein)
chain: B1 chain with E772R, E773R, S774E, S778E
modifications: left off: large carriers

The molecules below were run on cerebellar granule neurons (CGNs) (assay: FM4-64 synaptic vesicle recycling in transfected CGNs (Example 2)). Settings: single 50 mM KCl stimulus.
Type: cell-based, rat
Description: The effect of overexpression of dynamin constructs on synaptic vesicle recycling in CGNs was monitored using the styryl dye FM4-64. Neurons were removed from the culture medium and left to repolarise for 10 min in incubation medium (170 mM NaCl, 3.5 mM KCl, 0.4 mM KH2PO4, 20 mM TES (N-tris[hydroxy-methyl]-methyl-2-aminoethane-sulphonic acid), 5 mM NaHCO3, 5 mM glucose, 1.2 mM Na2SO4, 1.2 mM MgCl2, 1.3 mM CaCl2, pH 7.4). Neurons were then loaded with FM4-64 by evoking SV recycling using KCl stimulation medium (incubation medium supplemented with 50 mM KCl and 10 μM FM4-64, 50 mM NaCl being removed to maintain osmolarity) for 2 min. Cells were washed with incubation medium and mounted on an epifluorescence microscope (Olympus IX81). After 10 min, FM4-64 was unloaded from the cells by exposure to a 30 s pulse of stimulation medium. Transfected neurons were visualised using a Olympus Plan-Apochromat x40 objective at 480 nm excitation and a band-pass emission filter of 515-555 nm. FM4-64 unloading was monitored at 555 nm excitation and a long pass emission filter of 600 nm. The decrease in fluorescence intensity of FM4-64 loaded nerve terminals on stimulation was visualised using a Hammamatsu Orca-ERG CCD digital camera (Hammamatsu City, Japan) and Metamorph 6.3 imaging software (Molecular Devices, Downingtown, Pa.). The extent of FM4-64 unloading was quantified by normalising the fluorescence value at the start of stimulation to an arbitrary value and monitoring the total decrease in fluorescence on unloading with the KCl stimulus. The kinetics of FM4-64 unloading were estimated by normalising the start and completion of unloading to 1 and 0 respectively. Other methods employed in this study are as described in Example 1.
Synaptic vesicle turnover in neurons transfected with DynI-WT-GFP was indistinguishable from that in untransfected neurons. […] The extent of synaptic vesicle turnover was quantified by unloading the terminals with a single 50 mM KCl stimulus, which is considered mild. The total synaptic vesicle recycling pool was unaffected in CGNs transfected with DynI-WT-GFP, while after transfection with DynI-2B-GFP it was reduced. The inhibition can be solely accounted for by an effect on SV endocytosis, since there was no effect on the kinetics of dye unloading. Next, the effects of DynI-PB2-GFP and DynI-3B-GFP on SVE were examined. These two mutants were chosen since they specifically fail to bind syndapin I and endophilin I, respectively, providing a clear distinction between them.
Again, there was no effect on exocytosis, indicating an inhibition of SVE.
With B1 the “total synaptic recycling pool (FM4-64)” value was 59.5±4.3 % of control. For B2, the “total synaptic recycling pool (FM4-64)” value was 56.8±4.4 % of control. With B3 the “total synaptic recycling pool (FM4-64)” value was 94.0±5.1 % of control. With B4 the “total synaptic recycling pool (FM4-64)” value was 71.9±2.7 % of control.

What follows are molecules tested on cerebellar granule neurons (CGNs) (assay: FM4-64 SV turnover in transfected cerebellar granule neurons (Example 1)). Settings: not given.
Type: cell-based, rat
Description: Primary cerebellar granule neuron (CGN) cultures were prepared from 7-day old Sprague-Dawley rat pups as previously described (Tan et al. 2003). In brief, neurons were plated on poly-D-lysine coated glass coverslips at a density of 1.5×10^5 cells/coverslip. Neurons were cultured in MEM containing Earle's salts plus 10% (v/v) foetal calf serum, 25 mM KCl, 30 mM glucose, 2 mM glutamine, 100 U/ml penicillin and 100 μg/ml streptomycin at 37° C., in a humidified atmosphere of 5% CO2. The culture medium was supplemented with 10 μM cytosine arabinoside after 24 hours. Transfections were carried out using an established calcium phosphate precipitation protocol. CGNs were transiently transfected with 1.5 μg of DNA between 7-10 days in vitro and were used 48 h later.
The effect of overexpression of dynamin I-GFP constructs on SV recycling in CGNs was monitored using the styryl dye FM4-64 (Molecular Probes). The extent of FM4-64 loading was quantified by normalising the fluorescence value at the start of stimulation to an arbitrary value and monitoring the total decrease on unloading with a dual KCl stimulus. The rate of FM4-64 unloading (as a measure of SV exocytosis) was estimated by determining the time taken for individual nerve terminals to lose 50% of their dye content on stimulation of unloading. These values were normalised to untransfected nerve terminals within the same field of view. SV exocytosis and recycling was also monitored using the pH-sensitive VAMP-GFP (synaptopHluorin). Dynamin constructs linked to mCerulean rather than to GFP were used in this part of the study. CGNs were co-transfected with synaptopHluorin and either DynI^WT-mCerulean, DynI^dmA-mCerulean or Dyn^dmE-mCerulean and stimulated with 50 mM KCl for 20 sec. The evoked synaptopHluorin response was recorded at 500 nm excitation and 510-550 nm emission (mCerulean fluorescence was not detectable at this wavelength). Co-expression of dynamin I was confirmed by recording at 430 nm excitation. Responses were analysed by calculating the increased fluorescence of synaptopHluorin over baseline for individual nerve terminals and then normalising the maxima and minima to 1 and 0.
To show the key role of the phosphorylation sites by independent methods in cultured neurons their role in SV turnover in nerve terminals of CGNs transfected with dynamin I-GFP was examined. SV turnover in neurons transfected with DynI^WT-GFP was indistinguishable from that in untransfected neurons (FIG. 6a-c). […] The extent of HM4-64 accumulation and thus SV turnover, was quantified from the change in fluorescence (AF) by unloading the CGN terminals with two sequential KCl stimuli (S1 and S2) (FIG. 6j). The total SV recycling pool was reduced by approximately 70% in CGNs transfected with DynI^dmA-GFP (28±3.5% of control) and 40% with DynI^dmE-GFP (64.4±6.2% of control) (FIG. 6k). However, transfection of DynI^WT-GFP had no detectable effect (100.1±5.2% of control, FIG. 6k).
B5 was tested, and the “reduction of total SV recycling pool / SV turnover” value was “approximately 70%”. In the case of B6, the “reduction of total SV recycling pool / SV turnover” value is reported as ~40%.

Same assay, conditions: two sequential KCl stimuli
In the case of B5, the “total SV recycling pool (FM4-64)” value is reported as 28±3.5 % of control. With B6 the “total SV recycling pool (FM4-64)” value was 64.4±6.2 % of control. B3 was tested, and the “total SV recycling pool (FM4-64)” value was 100.1±5.2 % of control.

— US20080306007A1, “AGENTS FOR PROPHYLAXIS OR TREATMENT OF NEUROLOGICAL RELATED DISEASES AND CONDITIONS” (Newcastle Innovation Limited, priority 2007, published 2008)
